Substrate in the series: O=S(O)O
The series is described as follows: steady-state kinetics, Lineweaver-Burk plot. Format: biochemical, Zea mays. Conditions: 400 μM NADPH as electron donor (printed "electron acceptor"); sulfite 2.5-400 μM; 1.0 μg enzyme.

This note sets out measurements from article PMC6249382, “The Maize Sulfite Reductase Is Involved in Cold and Oxidative Stress Responses” (Frontiers in Plant Science, 2018).

B1: ZmSiR (Zea mays) (protein)
chain: MSGAIGGAEVHGFRGAAAQLPRSRVLGRPIRVAPPAAARPGGASAGSIRAVSAPAKKDASEVKRSKVEIIKEKSNFLRYPLNEELVSEAPNINESAVQLIKFHGSYQQTDRDVRGQKNYSFMLRTKNPCGKVPNQLYLAMDTLADEFGIGTLRLTTRQTFQLHGVLKKNLKTVLSTVIKNMGSTLGACGDLNRNVLAPAAPYVKKDILFAQQTAENIAALLTPQSGAYYDLWVDGEKIMSAEEPPEVTKARNDNSHGTNFPDSPEPIYGTQYLPRKFKVAVTAAGDNSVDILTNDIGVVVVSDDAGEPIGFNIYVGGGMGRTHRVETTFPRLADPLGYVPKEDILYAIKAIVVTQRENGRRDDRKYSRMKYMIDRWGIDRFRAEVEKYYGKKFESFRPLPEWQFNSYLGWQEQGDGKLFYGVHVDNGRVGGQAKKTLREIIEKYNLDVSITPNQNLILCGIDQAWREPITTALAQAGLLEPKDVDPLNLTAMACPALPLCPLAQTEAERGILPILKRIRAVFNKVGIKDSESVVVRITGCPNGCARPYMAELGFVGDGPKSYQIWLGGTPNQSTLAESFMDKVKLDDIEKVLEPLFTYWNGTRQEGESFGSFTNRTGFDKLKEVVNKWAESPSAA
For orientation: Km means the concentration of substrate that gives half-maximal velocity. Consider B1, for which the Km is 5.32 ± 0.26 µM.
